Read-outs that look alike come from different tables or passages of the source.
Measured: localisation_or_trafficking

GluA1: GluA1-4KR (K813, K819, K822, K868 to R) co-transfected with Nedd4-1 in HEK293T
abolishes: ubiquitination at K813 | ubiquitination at K819 | ubiquitination at K822 | ubiquitination at K868

Reference: PMC3079366
